{
  "source": "patent US20240092922A1",
  "about": "(EUCURE BEIJING BIOPHARMA, published 2024)",
  "binders": {"B1": {"name": "70-3F9 (antibody, V domains shown)", "VH": "QVQLQQPGAELVRPGASVKLSCKASGYTFTSYWINWVKQRPGQGLEWIGNIFPSDSYTNYNQKFKDRAKLTVDKSSSTAYMQLSSPTSEDSAVYYCTRFGSSGYPDYYTMEYWGQGTSVTVSS", "VL": "DIQMTQSPASLSASVGETVTITCRASGNIDNYLAWYQQKQGKSPQLLVYNAKTLAEGVPSRFSGSGSGTEYSLKINSLQPEDFGSYHCQQYWTIPYTFGGGTKLEIK", "notes": "mouse antibody purified from ascites"}, "B2": {"name": "30-5F9 (antibody, V domains shown)", "VH": "QVQLKESGPGLVAPSQSLSITCTVSGFSLTTYDISWVRQPPGKGLEWLGVIWTGGGTNYNSSFMSRLSISKDNSKNQVFLKMNSLQVDDTAIYYCERVDYWGQGTTLTVSS", "VL": "DVVMTQTPLSLPVSLGDQASISCRSSQSLVHSNGNTYLHWYLQKPGQSPKLLIYKVSNRFSGVPDRFSGSGSGTAFTFKISRVEAEDLGVYFCSQNTHVPWTFGGGTKLEIK", "notes": "as for B1"}, "B3": {"name": "16-1C4 (antibody, V domains shown)", "VH": "QGQMQQSGAELVKPGASVKLSCKTSGFTFSSSYINWLKQKPGQSLEWIAWIFAGTGGTYYNQKFTGKAQLTVDTSSGTAYMQFSSLTTEDSAIYYCARHSPRATLFDFWGQGTTLTVSS", "VL": "QIVLSQSPAILSASPGEKVTMTCRASSSVNHMHWYQQRTGFSPKAWIYATSNLASGVPARFSGSGSGTSYSLTISRVEAEDAATYYCQQWSSNPYTFGGGTKLEIK", "notes": "as for B1"}, "B4": {"name": "70-6F10 (antibody, V domains shown)", "VH": "QVQLQQSGPELVKPGASVKISCKASGYAFNNSWMNWVKQRPGQGLEWIGRIYPGDGDTDYNGKFKGKATLTADKSSSTAYMQLSSLTSVDSAVYFCARLDGNYYYWYFDVWGAGTTVTVSS", "VL": "not shown", "notes": "as for B1"}},
  "key": {"[1]": {"target": "T1, monkey (Rhesus macaque) 4-1BB (r4-1BB) on transfected CHO cells (monkey (Rhesus macaque), UniProt Q07011 24-255 (human entry))", "T1 construct": "also called rm4-1BB; CHO-r4-1BB", "T1 chain": "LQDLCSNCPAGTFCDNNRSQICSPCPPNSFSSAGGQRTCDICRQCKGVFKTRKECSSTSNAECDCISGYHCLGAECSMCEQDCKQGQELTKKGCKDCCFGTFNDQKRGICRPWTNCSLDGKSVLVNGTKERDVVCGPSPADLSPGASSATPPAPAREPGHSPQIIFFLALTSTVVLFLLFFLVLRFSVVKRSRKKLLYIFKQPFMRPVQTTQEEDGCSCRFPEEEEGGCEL", "assay": "flow cytometry on transfected CHO cells;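 also: antibodies tested at 1 µg/ml on CHO cells for 30 min at 4 °C, binding detected with FITC- or PE-labeled anti-mouse IgG Fc secondary by flow cytometry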", "procedure": "(§1) 25 μl CHO cells were added to each well. 25 μl purified anti-h4-1BB antibodies (1 μg/ml) were added to each well and were incubated at 4° C. for 30 minutes.\n(§2) After being washed with PBS (1200 rmp, 5 min) twice, 50 μl of FITC labeled anti-mouse IgG Fc antibody (anti-mIgG Fc-FITC) was added into each well at 1:100 dilution, followed by incubating at 4° C. for 30 minutes, and then PBS wash (1200 rmp, 5 min). In some cases, PE labeled anti-mouse IgG Fc antibody (anti-mIgG Fc-PE) was used to label the antibody instead, and was added into each tested well at 1:500 dilution. The signals for FITC and PE were determined by flow cytometry."}, "[2]": {"target": "T2, chimeric (mouse and human) 4-1BB (c4-1BB) on transfected CHO cells (chimeric (mouse and human))", "T2 construct": "also called chi4-1BB; CHO-c4-1BB", "assay": "flow cytometry on transfected CHO cells", "procedure": "as §1, §2"}, "[3]": {"target": "T3, mouse 4-1BB (m4-1BB) on transfected CHO cells (mouse, UniProt P20334 24-256)", "T3 construct": "also called CHO-m4-1BB", "assay": "flow cytometry on CHO cells transfected with mouse 4-1BB"}, "[4]": {"target": "T4, human 4-1BB (h4-1BB) on transiently transfected CHO cells (human, UniProt Q07011 24-255)", "T4 construct": "also called TNFRSF9; CD137", "assay": "flow cytometry, CHO cells transfected with human 4-1BB, antibody at 1 µg/ml", "procedure": "(§3) 25 μl CHO cells transiently transfected with human 4-1BB were added to each well in a plate. The purified antibodies were titrated to final concentrations of 10, 1, 0.1, 0.01, 0.001 μg/ml. The titrated antibodies were added to each well at 4° C. and incubated for 30 minutes.\n(§4) After being washed with phosphate-buffered saline (PBS) (1200 rpm, 5 minutes) twice, 50 μl of FITC labeled anti-mouse IgG Fc antibody (anti-mIgG Fc-FITC) at 1:100 dilution was added into each well, and incubated for 30 minutes at 4° C., followed by PBS wash (1200 rpm, 5 minutes). The signal for FITC was detected by flow cytometry."}, "[5]": {"target": "T4, human 4-1BB (h4-1BB) on transiently …", "assay": "flow cytometry, CHO cells transfected with human 4-1BB, antibody at 10 µg/ml", "procedure": "as §3, §4"}, "[6]": {"target": "T4, human 4-1BB (h4-1BB) on transiently …", "assay": "flow cytometry, CHO cells transfected with human 4-1BB, antibody at 0.1 µg/ml", "procedure": "as §3, §4"}, "[7]": {"target": "T4, human 4-1BB (h4-1BB) on transiently …", "assay": "flow cytometry, CHO cells transfected with human 4-1BB, antibody at 0.01 µg/ml", "procedure": "as §3, §4"}, "[8]": {"target": "T4, human 4-1BB (h4-1BB) on transiently …", "assay": "flow cytometry, CHO cells transfected with human 4-1BB, antibody at 0.001 µg/ml", "procedure": "as §3, §4"}, "[9]": {"target": "T3, mouse 4-1BB (m4-1BB) on transfected CHO …", "assay": "flow cytometry on CHO-m4-1BB cells, anti-mouse-IgG-Fc-FITC (1:100)", "procedure": "as §1, §2"}},
  "data": [
    {"binder": "B1", "values": [
      {"measurement": "binding result", "setting": "[1]", "result": "binds"},
      {"measurement": "binding result", "setting": "[2]", "result": "binds"},
      {"measurement": "binding result", "setting": "[3]", "result": "no binding (tested: 1 µg/ml)"},
      {"measurement": "percentage of cells with FITC signal", "setting": "[4]", "result": 56.4, "unit": "%"},
      {"measurement": "percentage of cells with FITC signal", "setting": "[5]", "result": 56.7, "unit": "%"},
      {"measurement": "percentage of cells with FITC signal", "setting": "[6]", "result": 9.06, "unit": "%"},
      {"measurement": "percentage of cells with FITC signal", "setting": "[7]", "result": 3.37, "unit": "%"},
      {"measurement": "percentage of cells with FITC signal", "setting": "[8]", "result": 1.25, "unit": "%"}
    ]},
    {"binder": "B2", "values": [
      {"measurement": "binding result", "setting": "[9]", "result": "no binding (tested: 1 µg/ml)"},
      {"measurement": "percentage of cells with FITC signal", "setting": "[4]", "result": 56.2, "unit": "%"},
      {"measurement": "percentage of cells with FITC signal", "setting": "[5]", "result": 68.9, "unit": "%"},
      {"measurement": "percentage of cells with FITC signal", "setting": "[6]", "result": 25.3, "unit": "%"},
      {"measurement": "percentage of cells with FITC signal", "setting": "[7]", "result": 0.72, "unit": "%"},
      {"measurement": "percentage of cells with FITC signal", "setting": "[8]", "result": 0.802, "unit": "%"}
    ]},
    {"binder": "B3", "values": [
      {"measurement": "binding result", "setting": "[9]", "result": "no binding (tested: 1 µg/ml)"},
      {"measurement": "percentage of cells with FITC signal", "setting": "[4]", "result": 69, "unit": "%"},
      {"measurement": "percentage of cells with FITC signal", "setting": "[5]", "result": 69.1, "unit": "%"},
      {"measurement": "percentage of cells with FITC signal", "setting": "[6]", "result": 49.7, "unit": "%"},
      {"measurement": "percentage of cells with FITC signal", "setting": "[7]", "result": 6.61, "unit": "%"},
      {"measurement": "percentage of cells with FITC signal", "setting": "[8]", "result": 0.316, "unit": "%"}
    ]},
    {"binder": "B4", "values": [
      {"measurement": "binding result", "setting": "[1]", "result": "binds"},
      {"measurement": "binding result", "setting": "[2]", "result": "binds"},
      {"measurement": "binding result", "setting": "[3]", "result": "no binding (tested: 1 µg/ml)"},
      {"measurement": "percentage of cells with FITC signal", "setting": "[4]", "result": 23.7, "unit": "%"},
      {"measurement": "percentage of cells with FITC signal", "setting": "[5]", "result": 52.9, "unit": "%"},
      {"measurement": "percentage of cells with FITC signal", "setting": "[6]", "result": 1.14, "unit": "%"},
      {"measurement": "percentage of cells with FITC signal", "setting": "[7]", "result": 0.913, "unit": "%"},
      {"measurement": "percentage of cells with FITC signal", "setting": "[8]", "result": 0.962, "unit": "%"}
    ]}
  ]
}
